Where a chain is given by its changes, count along the chain named.
T1: human TIGIT fused to a beta galactosidase portion, on YTS cells (YTS_hTIGIT/hGrb2) (human, UniProt Q495A1 22-244)
T1 sequence (looked up): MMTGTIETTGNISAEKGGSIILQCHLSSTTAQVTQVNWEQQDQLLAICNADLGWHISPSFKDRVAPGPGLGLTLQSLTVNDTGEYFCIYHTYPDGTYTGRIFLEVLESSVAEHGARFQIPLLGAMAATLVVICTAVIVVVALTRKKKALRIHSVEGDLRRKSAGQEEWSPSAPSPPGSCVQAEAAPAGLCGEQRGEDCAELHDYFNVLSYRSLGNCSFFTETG

T2: His-tagged recombinant Mouse TIGIT (mouse, UniProt P86176 29-148, limits assumed)
T2 construct: not shown: His tag
T2 sequence (looked up): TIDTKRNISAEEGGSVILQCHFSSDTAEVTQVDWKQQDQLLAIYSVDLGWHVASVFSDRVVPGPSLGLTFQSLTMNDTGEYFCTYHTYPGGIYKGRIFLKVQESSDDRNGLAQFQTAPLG

T3: His-tagged recombinant Human TIGIT (human, UniProt Q495A1 22-141)
T3 construct: also called VSIG9; VSTM3; not shown: His tag
T3 sequence (looked up): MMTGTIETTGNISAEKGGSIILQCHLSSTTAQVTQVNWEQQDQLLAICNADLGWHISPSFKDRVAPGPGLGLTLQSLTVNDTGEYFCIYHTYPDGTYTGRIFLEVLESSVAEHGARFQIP

B1: Ab1i1 (antibody, V domains shown)
VH: EVQLLESGGGLVQPGGSLRLSCAASGFTFSSYAMHWVRQAPGKGLEWVSGISSNGGSTSYADSVKGRFTISRDNSKNTLYLQMNSLRAEDTAVYYCARVPYSVWIDYWGQGTLVTVSS
VL: not shown
B2: Ab1i3 (antibody, V domains shown)
VH: B1 VH
VL: not shown
B3: Ab10 (Fab, V domains shown)
VH: EVQLLESGGGLVQPGGSLRLSCAASGFTFSSYSMNWVRQAPGKGLEWVAYIKSNSGTKGYADSVKGRFTISRDNSKNTLYLQMNSLRAEDTAVYYCARGPYDYWLDYWGQGTLVTVSS
VL: not shown
notes: ARG set
B4: Ab13 (Fab, V domains shown)
VH: B1 VH with S30D, A33S, G50S, S52N, S57Y, T58K, S59Y, S102D, V103Y
VL: not shown
notes: ARV set
B5: Ab15 (Fab, V domains shown)
VH: B3 VH with N35H, Y50S, K52W, T57N, K58T, G99V, L105M
VL: not shown
notes: ARV set
B6: Ab22 (Fab, V domains shown)
VH: B3 VH with N35H, Y50S, N54S, S55G, T57S, G59Y, G99V, L105M
VL: not shown
notes: ARV set
B7: Ab28 (Fab, V domains shown)
VH: B1 VH with A33S, S49A, G50N, S52N, S57N, S59G, S102D, I105M
VL: not shown
notes: ARV set
B8: Ab48 (Fab, V domains shown)
VH: B3 VH with Y50N, N54S, S55G, G56S, T57S, K58T, G59S, Y103V, L105M
VL: not shown
notes: ARG set; also called clone Ab48
B9: Ab54 (Fab, V domains shown)
VH: B1 VH with H35S, G50S, S52K, G55T, V99E, V103Y, I105L
VL: not shown
notes: ARE set
B10: Ab143 (Fab, V domains shown)
VH: B1 VH with A33S, S49A, G50A, S52N, G55A, T58S, S102G, I105M
VL: not shown
notes: ARV set; also called clone Ab143
B11: Ab155 (Fab, V domains shown)
VH: B3 VH with Y50A, K52S, S53G, N54D, S55T, K58S, G99E, D102S, Y103V
VL: not shown
notes: ARE set
B12: Ab172 (Fab, V domains shown)
VH: B1 VH with A33S, G50S, S52K, N54S, G55A, S57Y, S59Y, S102D, V103Y
VL: not shown
notes: ARV set
B13: Ab179 (Fab, V domains shown)
VH: B1 VH with H35S, S49A, G50S, S52K, G55T, S59Y, V99E, I105L
VL: not shown
notes: ARE set
B14: Ab191 (Fab, V domains shown)
VH: EVQLLESGGGLVQPGGSLRLSCAASGFTFSSYSMHWVRQAPGKGLEWVSSIKSSASYSSYADSVKGRFTISRDNSKNTLYLQMNSLRAEDTAVYYCARVPYDYWMDYWGQGTLVTVSS
VL: not shown
notes: ARV set
B15: Ab1 (Fab, V domains shown)
VH: B1 VH
VL: not shown
notes: ARV set; also called clone Ab1
B16: Ab7 (Fab, V domains shown)
VH: B14 VH with S33A, H35S, S49A, A55S, Y57S, S58I, V99E, D102S, M105L
VL: not shown
notes: ARE set
B17: Ab19 (Fab, V domains shown)
VH: B3 VH with N35S, Y50N, T57Y, K58T, G59Y, G99E, D102S, Y103V
VL: not shown
notes: ARE set
B18: Ab23 (Fab, V domains shown)
VH: EVQLLESGGGLVQPGGSLRLSCAASGFTFSSYAMSWVRQAPGKGLEWVARINSDSSNTYYADSVKGRFTISRDNSKNTLYLQMNSLRAEDTAVYYCAREPYSYWLDYWGQGTLVTVSS
VL: not shown
notes: ARE set
B19: Ab32 (Fab, V domains shown)
VH: B1 VH with A33S, S49A, G50N, S52N, S57N, S59G, S102D, I105M
VL: not shown
notes: ARV set
B20: Ab41 (Fab, V domains shown)
VH: B14 VH with S49A, A55G, S56G, S58I
VL: not shown
notes: ARV set
B21: Ab46 (Fab, V domains shown)
VH: B1 VH with A33S, S49A, S52W, N54S, S57T, S102G, I105M
VL: not shown
notes: ARV set
B22: Ab47 (Fab, V domains shown)
VH: B14 VH with H35N, S49A, A55S, S58T, V99G, Y103T, M105L
VL: not shown
notes: ARG set
B23: Ab49 (Fab, V domains shown)
VH: B14 VH with S49A, A55G, S56G, S58K, V99G, Y103V, M105I
VL: not shown
notes: ARG set
B24: Ab72 (Fab, V domains shown)
VH: B14 VH with S49A, S50A, S54D, S56G, Y57T, S59G, M105I
VL: not shown
notes: ARV set
B25: Ab74 (Fab, V domains shown)
VH: B3 VH with N35H, Y50S, K52S, S55A, K58T, G99V, L105I
VL: not shown
notes: ARV set
B26: Ab76 (Fab, V domains shown)
VH: B1 VH with S30D, A33S, G50A, S53G, N54S, S59Y
VL: not shown
notes: ARV set
B27: Ab95 (Fab, V domains shown)
VH: B18 VH with R50S, N52K, D54S, S55T, S56G, N57Y, T58I, Y59G
VL: not shown
notes: ARE set
B28: Ab124 (Fab, V domains shown)
VH: B14 VH with S49A, S53G, S59Y
VL: not shown
notes: ARV set
B29: Ab131 (Fab, V domains shown)
VH: B1 VH with H35S, G50D, S52K, N54S, G55A
VL: not shown
notes: ARV set
B30: Ab145 (Fab, V domains shown)
VH: B18 VH with R50S, N52S, D54S, S55T, S56G, N57Y, Y59S
VL: not shown
notes: ARE set
B31: Ab148 (Fab, V domains shown)
VH: B14 VH with H35S, S49A, S53G, S56G, S58I, S59Y
VL: not shown
notes: ARV set
B32: Ab153 (Fab, V domains shown)
VH: B14 VH with K52N, S54N, S56G, Y57T, S58I, M105I
VL: not shown
notes: ARV set
B33: Ab157 (Fab, V domains shown)
VH: B14 VH with H35N, S49A, K52N, S54N, S56G, Y57S, S58T, S59Y
VL: not shown
notes: ARV set
B34: Ab165 (Fab, V domains shown)
VH: B18 VH with R50A, N52K, D54S, S55T, S56G, N57T, T58I, Y103V
VL: not shown
notes: ARE set
B35: Ab169 (Fab, V domains shown)
VH: B14 VH with S49A, S54D, A55T, Y57S, S58T, S59Y, M105I
VL: not shown
notes: ARV set
B36: Ab175 (Fab, V domains shown)
VH: B1 VH with A33S, G50A, S52N, G55A, T58S, S102G, I105M
VL: not shown
notes: ARV set
B37: Ab185 (Fab, V domains shown)
VH: B18 VH with R50A, N52K, D54N, S55A, S56G, N57S, T58S
VL: not shown
notes: ARE set
B38: Ab197 (Fab, V domains shown)
VH: B14 VH with S49A, S50Y, S53G, S56G, Y57S, S58T, D102G, Y103V
VL: not shown
notes: ARV set

target: T1, human TIGIT fused to a beta …; assay: cell-based or functional assay

Binder	YTS_hTIGI/hGrbs_EFC_Agonism, 221_WT [µM]	YTS_hTIGI/hGrbs_EFC_Antagonism, 221_hPVR/ICAM [µM]
B1	0.0091	> 1
B2	> 1	0.172

target: T2, His-tagged recombinant Mouse TIGIT; assay: ELISA, coated His-tagged mouse TIGIT
Procedure: (§1) Binding affinities for antigen binding to anti-TIGIT monoclonal antibodies were determined by ELISA. […] Antibodies to be tested were diluted to 1 μM in PBS buffer containing 1% BSA and diluted 3-fold in a 10-point curve. […] Detection of the secondary antibody was determined using streptavidin-HRP and TMB reagent. All assays were performed at room temperature. Curve-fitting software was used to determine the EC₅₀ for each antibody.

Binder	EC50 [nM]
B3	40.7
B4	59.2
B5	8.4
B6	5.1
B7	28.7
B8	41.8
B9	21.5
B10	5.7
B11	234
B12	108
B13	228
B14	104
B15	181
B16	11.5
B17	64.8
B18	74.4
B19	14.7
B20	9.5

Binder	EC50 [nM]
B21	95
B22	361
B23	58
B24	235
B25	41.9
B26	65.7
B27	100
B28	14.1
B29	331
B30	50.4
B31	16.4
B32	13.9
B33	116
B34	228
B35	110
B36	39.3
B37	101
B38	81.4

target: T3, His-tagged recombinant Human TIGIT; assay: ELISA, coated His-tagged human TIGIT
Procedure: as §1

Binder	EC50 [nM]
B3	101
B4	43.1
B5	5
B6	9.1
B7	7.5
B8	13.8
B9	91.9
B10	3.4
B11	32.8
B12	83.2
B13	155
B14	44.9
B15	40.3
B16	14.6
B17	19.8
B18	289
B19	4.3
B20	11

Binder	EC50 [nM]
B21	8.2
B22	34.9
B23	27.6
B24	81.7
B25	177
B26	68.1
B27	357
B28	34.3
B29	7.2
B30	232
B31	168
B32	87.7
B33	165
B34	12.8
B35	153
B36	5.2
B37	81.7
B38	11.1

From US20200339678A1 (RIGEL PHARMACEUTICALS, published 2020)
